# Experimental data from publication doi:10.1101/2022.06.19.496727.
# Biological target: 8His-Smc3 with the J-head reporter cysteine (wild type trimer) (S. cerevisiae) (UniProt P47037)
# Assay: cross-linking
substance,measurement,value
Smc1 with the J-head reporter cysteine (wild type trimer) (from UniProt P32908 1-1225) (natural protein),percent of molecules cross-linked,70%
